# Laboratory results published in publication PMC3239214 (Nucleic Acids Research, 2011).
# B1: GyrA_ΔCTD (domain or fragment, Bacillus subtilis, UniProt P05653 1-489, looked up)
# chain: MSEQNTPQVREINISQEMRTSFLDYAMSVIVSRALPDVRDGLKPVHRRILYAMNDLGMTSDKPYKKSARIVGEVIGKYHPHGDSAVYESMVRMAQDFNYRYMLVDGHGNFGSVDGDSAAAMRYTEARMSKISMEILRDITKDTIDYQDNYDGSEREPVVMPSRFPNLLVNGAAGIAVGMATNIPPHQLGEIIDGVLAVSENPDITIPELMEVIPGPDFPTAGQILGRSGIRKAYESGRGSITIRAKAEIEQTSSGKERIIVTELPYQVNKAKLIEKIADLVRDKKIEGITDLRDESDRTGMRIVIEIRRDANANVILNNLYKQTALQTSFGINLLALVDGQPKVLTLKQCLEHYLDHQKVVIRRRTAYELRKAEARAHILEGLRVALDHLDAVISLIRNSQTAEIARTGLIEQFSLTEKQAQAILDMRLQRLTGLEREKIEEEYQSLVKLIAELKDILANEYKVLEIIREELTEIKERFNDERRTEIVT
# Biological target: the molecule itself
# Experiment: SEC
protein,measurement,value
B1,stoichiometry N,2
